The record followed here is the DeepSol protein solubility set.

This series can be described thus: soluble on expression in E. coli; label from the status in PepcDB or PDB records.
For “MGSDKIHHHHHHMQQGQMAYDRAITVFSPDGRLFQVEYAREAVKKGSTALGMKFANGVLLISDKKVRSRLIEQNSIEKIQLIDDYVAAVTSGLVADARVLVDFARISAQQEKVTYGSLVNIENLVKRVADQMQQYTQYGGVRPYGVSLIFAGIDQIGPRLFDCDPAGTINEYKATAIGSGKDAVVSFLEREYKENLPEKEAVTLGIKALKSSLEEGEELKAPEIASITVGNKYRIYDQEEVKKFL”, the “soluble on expression in E. coli” value is listed as “not soluble”.
Then “MRGSHHHHHHGMASMTGGQQMGRDLYDDDDKDHPFTMFYEKIQTPAYILEEDKLRKNCELLASVGEKSGAKVLLALKGFAFSGAMKIVGEYLKGCTCSGLWEAKFAKEYMDKEIHTYSPAFKEDEIGEIASLSHHIVFNSLAQFHKFQSKTQKNSLGLRCNVEFSLAPKELYNPCGRYSRLGIRAKDFENVDLNAIEGLHFHALCEESADALEAVLKVFEEKFGKWIGQMKWVNFGGGHHITKKGYDVEKLIALCKNFSDKYGVQVYLEPGEAVGWQTGNLVASVVDIIENEKQIAILDTSSEAHMPDTIIMPYTSEVLNARILATRENEKISDLKENEFAYLLTGNTCLAGDVMGEYAFDKKLKIGDKIVFLDQIHYTIVKNTTFNGIRLPNLMLLDHKNELQMIREFSYKDYSLRN”, with “soluble”; and “MSLKRADLSIVPLTFKHPIVTAHAVLSVRRTLILRLETVDGVVGYGEGAAFETPWYTEETTQSMIDTSKLILNLLKGMTVTTDVFPNLVSSIIGQRMAKAMWESALWEIEATRANKSLKSFISAGDSVSCGRTIGIGLLNQTMKSIETALADGFERIKLKASPNELLPALREIRAVFPDAPLMIDLNGSASDQPMEWFEQLDTYRLLMIEQPYPSRQFTKSAALQAKLTTPICLDESITSYDDVETMAQLGAGKIVNIKPARVGGLSEAFHIRKHGTPYWVGGMYESGIGRYHTLLFASLSGASFPADMSGTSAYFEQDLLDIPLEVENGKLTLPDSVQPDWNVIERLREEVITLQTEGHHHHHH”, with “soluble”; and “MVTIVWKESKGTAKSRYKARRAELIAERRSNEALARKIALKLSGCVRADKAASLGSLRCKKADECSGSICLPNVAIYAAGYRKSKQLTAR”, with “not soluble”.
Next, “MRIFLDANVIADWILLKNKNQDASDPLLTERYRHMAESFKLVEEILKLKEKVSGTSQMAIAEVFGVIYDDAINMKLFREAVPASSWYWFSIRERKALSEDSQQLFLMEPHTSPQGI”: “not soluble”; “MGSDKIHHHHHHMKFVIRDLNTKKVMKNAYRITKTKYETSLRVRVPGGLIDPESLAVVSKIASEYGNGQVHITTRQGFEILGINMEDMEEINKIIQPVIEKMNINQSEKNAGYPAAGTRNIAACIGNKVCPKAQYNTTEFAKRIEKAIFPNDLHFKVALTGCPNDCIKARMNDFGIIGMALPIYEKDRCVNCGACVKKCSKISVGALKTENNKVVRDKDKCIGCGECVLNCPTNAWTRDEKKYYRLAIMGRTGKKNPRLAEDFLLWVDEDSIIKIILNTYRYVEKYIDKDAPGGKEHIGYIIDRTGFMEFKKWALEGVELPEITKMYENIYWSGIKYL”: “not soluble”; “MNIVSTSVALLLAAASAEVENRKSSNATEVNMTETAQIENHPYVGMWVTGDGHIRQELLPNGRYDEARGKRKSAYQGRYEVKGNHIDYWDDTGFTADGEFVDDVLHHGGMIFYRQK”: “not soluble”.
Regarding “NVFMRKKDNTIDYRYFIEPNIMTSNIDDLLLEKPVAFQLEQFQKELIDSNVNPQLVQLVVDDATI”, the “soluble on expression in E. coli” value is “not soluble”.
Take “MTKVIAITGKGGTGKTAVAALLIRSLSKKGQFILAVDADADTNLPETLGCENVKTIGDAKEFLQAEITKPRPDNPDMNKESVLQSKVYEIIEEMPGYDLLVMGRPEGSGCYCYVNNLLRGIMDKLVKNYDLVVIDAEAGLEHFSRKIIRDIDDLIVVTDASRRGFRTAERIHELVNELESNIGSIHVIANKVTDANREKLVKLAEELKLNLIGMIPLDPKIEEMDIKGIPLFEIPDDSVAAVEIENIVKKLGF”: the “soluble on expression in E. coli” value is “not soluble”.
Then “MVVLYNECLKNHAVSLGGHALDGCGEFTPKSTTILTDPPSLRCDACGCHRNFHRRSPSDGFSQHRSPPSPLQLQPLAPVPNLLLSLSSGFFGPSDQEVKNKFTVERDVRKTAMIKKHKRTKFTAEQKVKMRGFAERAGWKINGWDEKWVREFCSEVGIERKVLKVWIHNNKYFNNGRSRDTTSSMSLNLKL”, with “soluble”.
Take “MGSDKIHHHHHHMSEAINHGIIKSYVDGLTTSTLLMPNLPTAEHAVALAKNYPGLFVGQHTNFLLGKPCADPCMIPSLVDEQGNFHRSSYYRQQKQVTFVYEEVRLETIAQLTRFKELTGHYPEHFDCHSIGDEVVDQVFLELAEEYGLHTTLKYSGEKEYPPQQGYFQVTHLLESGALSYIHEGVSVENFLEDDFGLLRMPESAIAEMHFDVGYLDQFVLDNSSYTTLRCKELATICDPRVRQWFEEQGIERITFGDLKK”: the “soluble on expression in E. coli” value is given as “not soluble”.
Then “MGSDKIHHHHHHAMSSCGSTKEAASLSSLNGEWNIIEVNGSAIVPAENQELPFIGFDTATGKVYGNSGCNRMMGSIDLNSKPGTIDMSRLGSTRMACPDMTTEQNVLNALGQVKSYKKLGKHNMALCNASNRPVVVLQKKASDVKLSALNGEWKIEEVNGEAIPSGMEKQPFINFDVRKKSIHGNAGCNLINGGFETDKENPRSISFPNVISTMMACPDMEVEGKVMKAINEVKSFDVLSGGGIGFYSADGTLVMVLVKK”, with “not soluble”; and “MGSDKIHHHHHHMHNSLVRELVQAGRRTSCLGLTNGKMGIVIALFRYARLSGELTCEDVGCELLDEIYEHLDSSIPISFGSGLWGIGWGIEYLIQNSYMEGDADEVLKDIDQCAARCIHAYGMSGLSLNNGIVGLGRYILIRIIPTFLKGDTVSSAFLKEYLIYLIDWLEERLEYTNESIDDLLDFLFDLYPTGFYRTKVSVLIEKCMNRYNL”, with “not soluble”.
With “MSLSEIKRKFDAVSGKYDEQRRKFIPCFDDFYGVSVSIASVDTENPDILDLGAGTGLLSAFLMEKYPEATFTLVDMSEKMLEIAKNRFRGNLKVKYIEADYSKYDFEEKYDMVVSALSIHHLEDEDKKELYKRSYSILKESGIFINADLVHGETAFIENLNKTIWRQYVENSGLTEEEIAAGYERSKLDKDIEMNQQLNWLKEAGFRDVSCIYKYYQFAVMFGRKTEGHHHHHH”, the “soluble on expression in E. coli” value is “soluble”.
In the case of “MEAVQSSGRRMVHAIVWRYFEPRLRGSSVSNPGSNLVRFSEFCRGSMGFHICRLCDQASQWLSLDRSTSQWLSLDRSTVTTAFVWTDAFTTGTAGFNWDNKQPDNKDLNQPCAIVLAAHAPIHFQSYQFQPAMMDDAECAADSVASMGRTISGYVCGKPARQ”, the “soluble on expression in E. coli” value was “not soluble”.
Next, “MLLKGLYKVEFETPRRKAVGVIFASDGRLHGGSSAFAYIGAYEQQGQTIQGTITARRHTSDPAIQSVFGVDEVRVDFHGSTIGDYAQVEGMAAEAPSLGFKALLTRISQ”: “not soluble”.
In the case of “MFERYQAGEQAVLVHLDFPDESSREDLSEFKMLVSSAGVQALTVVTGKRNTPHPRFFVGSGKAEEIRDAVHLVGANVVLFNHSLTPSQEKNIEALCECRVVDRTTLILDIFAQRARTHEGKLQVELAQLRHMSSRLIRGWTHLERQKGGIGLRGPGETQLETDRRLLRERMVNIRKRLGKVEVQRQQGRRARTRAELPTLSLVGYTNAGKSTLFNTLTQSDVYAADQLFATLDPTLRKIDLFGVGRVILADTVGFIRHLPHDLVAAFKATLTETREAELLLHVVDISDDRRSENIEQVEYVLKEIEANDVPQLIICNKIDNLDDIEPRIDRDDQGMPIRVWLSAQANIGTELLFTALAERLDIQVVNHQLSIPPSAGKLRGELYKLNCVTSETYDEQGHCHLEVNMPSREWERLISTKYSELVDYIEHLEHHHHHH”, the “soluble on expression in E. coli” value is “not soluble”.
Then “MGSDKIHHHHHHMKLMIGKLFWDTGASMPCYPSLENDMICDMLVVGSGEAGAQIAYSLVKMGMRVTLIEKNMISCGSTAANTGLLQFLHDKSLTSLIHTFGEEKGVRAYKLCYEALRTMEKVVPTLDIDPQFIPRNSLYYASKSEDVSFLQEEYKTLQNYEFPVEYFTASDIKERYPFTRQAALYTHGDAEVNPYLLAHSLLHKANQMGANIYEHTEAIHIKKRQNDLICYTKTGNQIVAKNIIMATGYEALFGKKEKNTTVETSYAVVTNKVDSFEGWHEQSLIWETARPYLYFRTYENRIIVGGLDEAMKIQTIGDTKLLHKRDVLINIIKEMFPQYKDIQAEYYWAAAFGGSHDGLPILKEDNKIHNLFYALPYGGNGTVYGMVFAKIFEQLFTNKESEDFSLFNR”, with “not soluble”; and “MKKLLAGVLVSAIAFAKPVFMDAEWAKQFCEVWNNTPELVEKLGKSESWTEVPERKLFLYRKDCGPEKQIQLTIKNENGRAVCVYGGWKKDEKTDNDFLMYADTKRWLEMGRKEYGPMKAMLFGRLKFEGPRFVAMKNMGPFEAFLDKIDEVEADTSRCP”, with “not soluble”.
Regarding “MGSDKIHHHHHHMWGYLQGKQVALKRNRVDLYHFGYMIRSKSARKLGTTTAQQIKDITDEIRAFLVKDHRDILSESFMNKEKRAAVEQIIKSFLLSNQVVISDVPSEQLLNMVCDDIVGFGIIEPLKEDQDVTDIYINGTKEIIYEKIGEGELTFPYRFETEEEVKALAYKMVNSTSESLNTAKPYVDCVFPYIRINIALDELGGLGTTITIRKNADHLRASEERMLSTNQASKEMLDFLAAAVKAKMNILVAGATGTGKSEFMKFLASHIPKGKKKERTLVVEDNPELYLHRIFPEHHFVPMQCRASEVEENAIDFDRLLTNALRQGPKRLIVGESRGKEALKMINFFQTGHPGFTSVHARSAIEAVRRLMLMCLQSGANIDAQYLYELISQTFDVIVFLEKKDDGNRYITEMIELLDYRGDIQFNELSQFIPTYEEQDEINESIGKIHGQHIITGKMSAKMEKKFRSATSVNPALYAPFLSQQEVQYA”, the “soluble on expression in E. coli” value is “not soluble”.
Consider “EQLAGIDNLRDLDPTGALATKLEAIAPTVSTYDSYAGRLISEYGLLLPVEPSSRLISQTELFQIAHSIVSAHTGALNTSNSPNTVTSTLISLVSEMDNHMVSPTDIEEESAAFLAMIEDVEATSKRAPSKEVYKWRDTQVLRNELLPLVQQLKTHLADNHLMTFGEQMSLAARLAAENPQVGASQRNRYQIIMLDEYQDTGHAQRVLLKSLFAGTAVTAVGDPMQSIYGWRGATAANLERFLTDFGSNGSPATKKELTVSFRNPPEVLDLANRVSRELLGVPEDPRRPVQPLEPGPAALNGIVRLGFFPSMDEERSYVADHLAQAYEQHDGDHPFTAAVLVRKRKHSAAIALELQQRGVPVE”, for which the “soluble on expression in E. coli” value was “not soluble”.
As for “GMKPIKEIADQLELKDDILYPYGHYIAKIDHRFLKSLENHEDGKLILVTAVTPTPAGEGKTTTSIGLSMSLNRIGKKSIVTLREPSLGPTLGLKGGATGGGRSRVLPSDEINLHFTGDMHAVASAHNLLAAVLDSHIKHGNELKIDITRVFWKRTMDMNDRALRSIVIGLGGSANGFPREDSFIITAASEVMAILALSENMKDLKERLGKIIVALDADRKIVRISDLGIQGAMAVLLKDAINPNLVQTTEGTPALIHCGPFANIAHGTNSIIATKMAMKLSEYTVTEAGFGADLGAEKFIDFVSRVGGFYPNAAVLVATVRALKYHGGANLKNIHEENLEALKEGFKNLRVHVENLRKFNLPVVVALNRFSTDTEKEIAYVVKECEKLGVRVAVSEVFKKGSEGGVELAKAVAEAAKDVEPAYLYEMNDPVEKKIEILAKEIYRAGRVEFSDTAKNALKFIKKHGFDELPVIVAKTPKSISHDPSLRGAPEGYTFVVSDLFVSAGAGFVVALSGDINLMPGLPKKPNALNMDVDDSGNIVGVS”, the “soluble on expression in E. coli” value is on record as “soluble”.
